Assay results taken from US20230192878A1, “METHODS, THERAPIES AND USES FOR TREATING CANCER” (PFIZER INC., priority 2020, published 2023).

Key:
Molp8 = experiment: Soluble BCMA (sBCMA) shedding after GSI (ELISA); type: cell-based, Human; set-up: unit not given here; conditions: Table 6 (sBCMA in supernatant, ELISA), 24 hours
OPM2-luc = experiment: BCMAxCD3 bispecific mediated cell killing with human T cells, with or without GSI; type: cell-based; conditions: for OPM2 cell viability (% control): 60 hours, with or without 1 μM GSI
Method: (§1) CD3^+ T cells from PBMCs (Stem Cell Technologies) were negatively selected using EasySep Human T cell enrichment kit (Stem Cell Technologies). Multiple myeloma cells expressing luciferase (MM.1S-luc, OPM2-luc, H929-luc, Molp8-luc, RPM18226-luc) were treated with 1 μM GSI […]. After 24 hours, cells were seeded with 50,000 CD3^+ pan T cells in a clear 96-well V-bottom plate. Cells were further treated with a range of BCMAxCD3 bispecific antibody concentrations with or without 1 μM GSI. 60 hours after treatment, luciferase activity in treated cells was analyzed using NeoLite reagent kit (Perkin Elmer) and acquired on VictorX multimode plate reader (Perkin Elmer). Cell viability was calculated by dividing luciferase activity of treated cells over luciferase activity of untreated control (no BCMAxCD3 bispecific antibody added).

MM.1S-luc = experiment: as above; type: cell-based; conditions: for MM.1S cell viability (% control): 60 hours, with or without 1 μM GSI
Method: as §1

RPMI8226 = experiment: as above; type: cell-based; conditions: for RPMI8226 cell viability (% control): 60 hours, with or without 1 μM GSI
Method: as §1

CD8+ T cells = experiment: PD-1 induction on CD8+ T cells co-cultured with MM.1S-luc cells; type: cell-based, human; conditions: 1 nM BCMAxCD3 bispecific, ± SD
Method: CD3+ T cells from PBMCs (Stem Cell Technologies) were negatively selected using EasySep Human T cell enrichment kit (Stem Cell Technologies). 10,000 target Multiple Myeloma MM.1S cells expressing luciferase (MM.1S-luc) were seeded with 50,000 CD3^+ pan T cells in a clear 96-well V-bottom plate. Cells were treated with 1 nM BCMAxCD3 bispecific antibody and PD-1 expression was analyzed at 3, 24, 48 and 72 hours after addition of the BCMAxCD3 bispecific. At the specified time points, cells were collected from the wells, washed with PBS+2% FBS, and stained with ZombieNIR Viability dye (Biolegend) in PBS for 20 minutes at room temperature, followed by staining with antibodies against human CD8 and PD-1 (Biolegend). Samples were analyzed using FlowJo flow cytometry analysis software. Dead cells were removed from analysis by gating on ZombieNIR negative population. Samples were further gated on CD8^+ positive population. Percentage of PD-1+ cells is expressed as PD-1 positive cells within the CD8+ population.

Molecule: CCC[C@H](N[C@H]1CCc2cc(F)cc(F)c2C1)C(=O)Nc1cn(C(C)(C)CNCC(C)(C)C)cn1 [GSI, nirogacestat]
- BCMA (-PE) MFI (Molp8; Molp8, GSI 0.01 nM): 6887.3
- BCMA (-PE) MFI (Molp8; Molp8, GSI 0.1 nM): 6363.4
- BCMA (-PE) MFI (Molp8; Molp8, GSI 1 nM): 6072.9
- BCMA (-PE) MFI (Molp8; Molp8, GSI 2.5 nM): 6765.5
- BCMA (-PE) MFI (Molp8; Molp8, GSI 5 nM): 5989.3
- BCMA (-PE) MFI (Molp8; Molp8, GSI 10 nM): 5958.9
- BCMA (-PE) MFI (Molp8; Molp8, GSI 25 nM): 3021.7
- BCMA (-PE) MFI (Molp8; Molp8, GSI 50 nM): 1044.3
- BCMA (-PE) MFI (Molp8; Molp8, GSI 100 nM): 431.8
- BCMA (-PE) MFI (Molp8; Molp8, GSI 500 nM): 87.3
- BCMA (-PE) MFI (Molp8; Molp8, GSI 1000 nM): 51.6
- Enhancement of BCMAxCD3 bispecific antibody mediated cell killing by GSI (OPM2-luc; OPM2, 1 μM GSI): 21 ×
- Enhancement of BCMAxCD3 bispecific antibody mediated cell killing by GSI (MM.1S-luc; MM.1S, 1 μM GSI): 21 ×
- Enhancement of BCMAxCD3 bispecific antibody mediated cell killing by GSI (RPMI8226; RPMI8226, 1 μM GSI): 24 ×

Molecule: PF-06863135: heterodimeric humanized full-length bispecific antibody with one BCMA binding arm and one CD3 binding arm
- OPM2 cell viability (% control) (OPM2-luc; BCMAxCD3 0.00064 nM): 83.8 ± 3.4 % control
- OPM2 cell viability (% control) (OPM2-luc; BCMAxCD3 0.0032 nM): 84.3 ± 3.1 % control
- OPM2 cell viability (% control) (OPM2-luc; BCMAxCD3 0.016 nM): 68.4 ± 2.4 % control
- OPM2 cell viability (% control) (OPM2-luc; BCMAxCD3 0.08 nM): 43.6 ± 6.4 % control
- OPM2 cell viability (% control) (OPM2-luc; BCMAxCD3 0.4 nM): 3.1 ± 0.8 % control
- OPM2 cell viability (% control) (OPM2-luc; BCMAxCD3 2 nM): 2.8 ± 0.8 % control
- OPM2 cell viability (% control) (OPM2-luc; BCMAxCD3 10 nM): 2 ± 0.2 % control
- OPM2 cell viability (% control) (OPM2-luc; BCMAxCD3 50 nM): 3.3 ± 0.3 % control
- MM.1S cell viability (% control) (MM.1S-luc; BCMA × CD3 0.00001 nM): 80.6 ± 3.9 % control
- MM.1S cell viability (% control) (MM.1S-luc; BCMA × CD3 0.00005 nM): 79.8 ± 2.9 % control
- MM.1S cell viability (% control) (MM.1S-luc; BCMA × CD3 0.00026 nM): 78 ± 0.9 % control
- MM.1S cell viability (% control) (MM.1S-luc; BCMA × CD3 0.00128 nM): 87.7 ± 4.4 % control
- MM.1S cell viability (% control) (MM.1S-luc; BCMA × CD3 0.0064 nM): 108 ± 4.5 % control
- MM.1S cell viability (% control) (MM.1S-luc; BCMA × CD3 0.032 nM): 2.5 ± 0.3 % control
- MM.1S cell viability (% control) (MM.1S-luc; BCMA × CD3 0.16 nM): 1.7 ± 0.8 % control
- MM.1S cell viability (% control) (MM.1S-luc; BCMA × CD3 0.8 nM): 2.4 ± 0.5 % control
- MM.1S cell viability (% control) (MM.1S-luc; BCMA × CD3 4 nM): 1.3 ± 0.8 % control
- RPMI8226 cell viability (% control) (RPMI8226; BCMAxCD3 0.00064 nM): 113.2 ± 10.6 % control
- RPMI8226 cell viability (% control) (RPMI8226; BCMAxCD3 0.0032 nM): 130.5 ± 19.5 % control
- RPMI8226 cell viability (% control) (RPMI8226; BCMAxCD3 0.016 nM): 113.4 ± 1.3 % control
- RPMI8226 cell viability (% control) (RPMI8226; BCMAxCD3 0.08 nM): 54.2 ± 16.9 % control
- RPMI8226 cell viability (% control) (RPMI8226; BCMAxCD3 0.4 nM): 28.7 ± 13.6 % control
- RPMI8226 cell viability (% control) (RPMI8226; BCMAxCD3 2 nM): 25.7 ± 5.5 % control
- RPMI8226 cell viability (% control) (RPMI8226; BCMAxCD3 10 nM): 19.9 ± 1.1 % control
- RPMI8226 cell viability (% control) (RPMI8226; BCMAxCD3 50 nM): 19.4 ± 5 % control
- % PD-1 (of CD8+ T cells) (CD8+ T cells; 3 hours): 12.8 ± 0.6%
- % PD-1 (of CD8+ T cells) (CD8+ T cells; 24 hours): 18.9 ± 1.2%
- % PD-1 (of CD8+ T cells) (CD8+ T cells; 48 hours): 69.9 ± 3.1%
- % PD-1 (of CD8+ T cells) (CD8+ T cells; 72 hours): 69.9 ± 3.1%
